Biological target: HLA-A*02:01 (Homo sapiens, UniProt P04439, D140Y/D185E/D98H/E176V/E277Q/G131W/G231S/I119V/I121R/I166T/I218V/L300P/L318F/N151K/N90K/P208A/P217A/Q86G/Q94H/R138H/R169H/T345S)
Test: MHC binding assay: UV-ligand exchange with beta2m ELISA (peptide exchange yield)
Settings: binding to HLA-A*02:01, β2m ELISA
Text: Candidate peptides for T cell based therapies according to the present invention were further tested for their MHC binding capacity (affinity). The individual peptide-MHC complexes were produced by UV-ligand exchange, where a UV-sensitive peptide is cleaved upon UV-irradiation, and exchanged with the peptide of interest as analyzed. Only peptide candidates that can effectively bind and stabilize the peptide-receptive MHC molecules prevent dissociation of the MHC complexes. To determine the yield of the exchange reaction, an ELISA was performed based on the detection of the light chain (β2m) of stabilized MHC complexes. The assay was performed as generally described in Rodenko et al. (Rodenko et al., 2006).
96 well MAXISorp plates (NUNC) were coated over night with 2 ug/ml streptavidin in PBS at room temperature, washed 4× and blocked for 1 h at 37° C. in 2% BSA containing blocking buffer. Refolded HLA-A*02:01/MLA-001 monomers served as standards, covering the range of 15-500 ng/ml. Peptide-MHC monomers of the UV-exchange reaction were diluted 100 fold in blocking buffer. Samples were incubated for 1 h at 37° C., washed four times, incubated with 2 ug/ml HRP conjugated anti-β2m for 1 h at 37° C., washed again and detected with TMB solution that is stopped with […]. Absorption was measured at 450 nm. Candidate peptides that show a high exchange yield (preferably higher than 50%, most preferred higher than 75%) are generally preferred for a generation and production of antibodies or fragments thereof, and/or T cell receptors or fragments thereof, as they show sufficient avidity to the MHC molecules and prevent dissociation of the MHC complexes.

Peptide exchange (MHC class I binding score, peptide exchange yield), +++ (= ≥50% = +++):
100 (ALQSFEFRV; listed as Homo sapiens) [compound 100]
112 (ILAQDVAQL; listed as Homo sapiens) [compound 112]
68 (QLMNLIRSV; listed as Homo sapiens) [compound 68]
211 (LLTTVLINA; listed as Homo sapiens) [compound 211]
210 (GLAGDNIYL; listed as Homo sapiens) [compound 210]
230 (KLLNMIFSI; listed as Homo sapiens) [compound 230]
225 (FLPQPVPLSV; listed as Homo sapiens) [compound 225]
271 (VLIEYNFSI; listed as Homo sapiens) [compound 271]
139 (IILENIQSL; listed as Homo sapiens) [compound 139]
136 (LLWDAPAKC; listed as Homo sapiens) [compound 136]
3 (RVIDDSLVVGV; listed as Homo sapiens) [compound 3]
130 (QLYGSAITL; listed as Homo sapiens) [compound 130]
244 (NVAEIVIHI; listed as Homo sapiens) [compound 244]
86 (SLFSNIESV; listed as Homo sapiens) [compound 86]
153 (KLVELEHTL; listed as Homo sapiens) [compound 153]
241 (KQFEGTVEI; listed as Homo sapiens) [compound 241]

From patent publication US11332512B2, “Peptides and combination of peptides for use in immunotherapy against various tumors” (Immatics Biotechnologies GmbH, priority 2015, dated 2022)
